Laboratory results: PMC11391413

Columns and labels:
[1] = biological target: SOS1 S5 (Homo sapiens), Q07889; assay: NMR
full-length GRB2 (human) = full-length GRB2 (human) (UniProt P62993); assay: NMR titration; 15N-labelled full-length GRB2 (about 200-270 uM) titrated with SOS1 PRM peptides (up to 1:12 S4, 1:36 S5 and S9, 1:24 S10), 2D 1H-15N HSQC, 25 °C, 20 mM sodium phosphate, 0.05% NaN3; global fit of residues with CSP over 0.03 ppm to an independent two-site model (values in parentheses: single-binding site model)

Row | Binder | Kd [1] [µM] | KD1 (NSH3 site, independent two-site model) (full-length GRB2 (human)) [µM] | KD2 (CSH3 site, independent two-site model) (full-length GRB2 (human)) [µM] | KD for NSH3, single-binding site model (full-length GRB2 (human)) [µM]
1 | GRB2 NSH3, P62993 (protein) MEAIAKYDFKATADDELSFKRGDILKVLNEECDQNWYKAELNGKDGFIPKNYIEMKPH | 40.9 | – | – | –
2 | PKLPPKTYKREH [SOS1 S10 PRM (…)] | – | 483 | 579 | –
3 | DSPPAIPPRQPT [SOS1 S5 PRM (…)] | – | 40.9 | 901 | 44.9
4 | GRB2 CSH3, P62993 (protein) QQPTYVQALFDFDPQEDGELGFRRGDFIHVMDNSDPNWWKGACHGQTGMFPRNYVTPVNR | 901 | – | – | –
5 | IAGPPVPPRQST [SOS1 S9 PRM (…)] | – | 28.4 | 516 | 35
